Columns and labels:
[1] = biological target: SARS-CoV-2 spike receptor binding domain (RBD), wild type (SARS-CoV-2, UniProt P0DTC2 319-539); assay: ELISA, RBD protein coated, mAb titrated
[2] = biological target: SARS-CoV-2 spike receptor binding domain (RBD), wild type (SARS-CoV-2, UniProt P0DTC2 319-539); assay: ELISA, RBD protein coated, mAb titrated; remark: listed apart in the source

Binder | EC50 [1] | EC50 [2]
C524 (antibody, V domains shown) VH: EVQLVESGGDLIQPGGSLRLSCAASGFSVSNSYMSWVRQAPGKGLEWVSIIYSGGSTYYADSVKGRFTISRDNSKNTLYLQMNSLRAEDTAVYFCAKTPRGDYDSSGTSAYWGQGTLVTVSS VL: QLVLTQSPSASASLGASVNLTCTLSSGHSSYAIAWHQQQPEKGPRFLMKLSSDGSHNKGDGIPDRFSGSSSGAERFLTISSLQSEDEADYYCQTWGIGSDWVFGGGTKLTVL | 5 ng/mL | 
C573 (antibody, V domains shown) VH: QVQLQESGPGLVKPSGTLSLTCAVSGGSISTVNWWSWVRQPPGKGLEWIGEIHHSGNTNHNPSLRSRVTISVDKSKNQFSLKLRSVTAADTAVYYCARDGGRPGDAFDLWGQGTMVTVSS VL: QSALTQPASVSGSPGQSITISCTGTSSDVGGYNYVSWYQQHPGKVPKVMIYDVSNRPSGISNRFSGSKSGNTASLTISGLQAEDEADYYCNSYRSNSTRVFGTGTKVTV |  | 2.2 ng/mL
C531 (antibody, V domains shown) VH: EVQLVESGGGLVQPGRSLRLSCVATGFTFDDFAMHWVRQAPGKGLEWVSGISWNGGIIGYVDSVKGRFTISRDNAKNSLYLQMNSLRPEDTALYYCVKGYRYYYDILTGYYNDAGAFDYWGQGTLVTVSS VL: DIQSTQSPSFLSASVGDRVAITCRASQGISSYLAWYQQKPGKAPKLLIYPASTLQSGVPSGFSGSGSGTEFTLTISSLQPEDFATYYCQQLNDYPFTFGPGTKVDIK |  | 6.84 ng/mL
C571 (antibody, V domains shown) VH: EVQLVESGGGLIQPGGSLKLSCVVSGFTVSRNYISWVRQAPGKGLEWVSVLFAGGSTFYADSVKGRFAISRDNSNNTLFLQMNSLRVEDTAIYYCARGDGELIFDQWGQGTLVTVSS VL: QSVLTQPPSVSGAPGQRVTIVCTGTSSNIGAGYDVHWYQQLPGRAPKVLVSGNNIRPSEVPDRFSGSRSGTSASLAITSLQPEDEAQYYCQSYDSNLYAVFGGGTKLTVL |  | 4.62 ng/mL
C572 (antibody, V domains shown) VH: EVQLVESGGGLIKPGRSLRLSCTASGFTFGDYAMTWFRQAPGKGLEWVGFIRSKAYGGTTGYAASVKYRFTISRDDSKSIAYLQMDSLKTEDTAVYYCTRWDGWSQHDYWGQGTLVTVSS VL: DIVMTQSPLSLSVTPGEPASISCRSSQSLLHSNGNNYFDWYLQKPGQSPQLLIYLASNRASGVPDRFSGSGSGTDFTLKISRVEAEDVGVYYCMQVLQIPYTFGQGTKLEI |  | 2.9 ng/mL
C527 (antibody, V domains shown) VH: QVQLVESGGGVVQPGRSLRLSCAASGFTFSSYGMHWVRQAPGKGLEWVALIGYDGTDKYYAENVKGRFTISRDNSKNTLFLQMNSLRGGDTAVYLCARDGIPFRYGMDVWGQGTTVTVSS VL: DIQMTQSPSTLSASVGDRVTITCRASQSIDIWLAWYQQKPGKAPKFLIHKASTLESGVPSRFSGSGSGTEFTLTISSLQPDDFATYYCQHYHSYSGTFGQGTKVEIK |  | 13.4 ng/mL
C537 (antibody, V domains shown) VH: QLQLQESGPGLVKPSETLSLTCTVSGGAISSRNYHWGWIRQPPGKGLEWIGSIYYSGSTYYSPSLKSRVTISVDTSKNQFSLRLSSVTAADTAVYYCARLETSGWYTEDVFDIWGQGTMVTVSS VL: DIQMTQSPSSLSASVGDRVTITCRASQSISSYLNWYQQKPGKAPKLLIYAASSLQSGVPSRFSGSGSGTDFTLTISSLLPEDFATYYCQRSYSAMYTFGQGTKLEIK | 41.9 ng/mL | 
C529 (antibody, V domains shown) VH: EVQLLESGGGLVQPGGSLRLSCAASGFTFNNYAMNWVRQAPGRGLEWVSGISGSGANTYYADSVKGRFTISRDNPKNTLSLQMNSLRAEDTALYYCAKVLSPTYYDSWSGPDAFDFWGQGTMVTVSS VL: DIQMTQSPSTLSASVGDRVTITCRASQTISPWLAWYQQKPGKAPNLLIYKASSLESGVPSRFSGSGSGTEFTLTISSLQPDDFATYYCQQYNSYSSWTFGQGTKVEIK |  | 8 ng/mL
C576 (antibody, V domains shown) VH: QVQLVQSGAEVKKPGSSVKVSCKASGGTFSIYAISWVRQAPGQGLEWMGGIIPILGTANYAQKFQGRVTITADESTSTAYMELSSLRSEDTAVYYCASFHVAYGDYIPFDYWGQGTLVTVSS VL: not shown |  | 5.29 ng/mL
C563 (antibody, V domains shown) VH: EVQLVESGGGLVKPGGSLRLSCAASGFPFTNAWMSWVRQAPGKGLEWVGHIKDYTDGGTTDYAAPVKGKFTISRDDSKNTLYLHMNSLKTEDTAVYYCSTVGSYYYDSRGPTSDAFDIWGQGTLVTVSS VL: not shown | 1.19 ng/mL | 
C538 (antibody, V domains shown) VH: QLQLQESGPGLVKPSETLSLTCTVSGGSISSSSYYWAWIRQPPGKGLEWIGNIYYSGITYYSPSLKSRVTISVDTSKNQFSLKLRSVTAADTAVYYCARQHRYGSGSSELLWGQGTLVTVSS VL: QSALTQPPSASGSPGQSVTISCTGTSSDVGSYNYVSWYQQHPGKAPKLMIYEVTKRPSGVPDRFSGSKSGNTASLTVSGLQADDEADYYCSSYAGSSNLIFGGGTKLTVL | 3.94 ng/mL | 
C528 (antibody, V domains shown) VH: EVQLVESGGGLVQPGGSLRLSCAASGFTFRNYDMHWVRQVAGKGLEWVSAIGTSGDTYYPDSVKGRFTISRENAKNSVYLQMNNLRAGDTAVYFCVRDREISGWTGWYFDLWGRGTLVTVSS VL: DIQMTQSPSSLSASVGDRVTITCRASQTIHNYLNWYQQIPGKAPRLLIYATNTLQSGVPSRFSGSGSGTDFTLTITGLQPEDFATYYCQQSYSTPPITFGQGTRLEIK |  | 5.66 ng/mL
C525 (antibody, V domains shown) VH: EVQLVESGGRLVQPGRSLRLSCAASGFTFDDYAIHWVRQAPGKGLEWVSGISWNSGSIGYADSVRGRFTISRDNAKNSLYLQMNSLRAEDTALYYCAKGLDSSSSASPDYWGQGTLVTVSS VL: DIQMTQSPSSVSASVGDRVTITCRASQDISSWLAWYQQKPGKAPKLLIYLASSLQSGVPSRFSGSGSGTDFILTISSLQPEDFGTYYCQQGNSFPLTFGGGTKVEIK |  | 10.6 ng/mL
C574 (antibody, V domains shown) VH: QVQLVQSGAEVKKPGASVKVSCKASGYTFTSYGFSWVRQAPGQGLEWLGWISAYNGNTNYAQKLQGRVTMTTDTSTSTAYMELRSLRSDDTAVYYCARAIAVAGTSGEFDYWGQGTLVTVSS VL: not shown |  | 8.12 ng/mL
C526 (antibody, V domains shown) VH: QVQLVQSGAEVKKPGASVKVSCKASGHTFTTYYLHWVRQAPGQGLEWMGRIDPSGGSTTYAQKFQGRVTMTRDTSTSTVYMELSSLRSEDTALYYCARGGYCGSTSCSPDDYFDYWGQGTLVTVSS VL: SYELTQPPSVSVAPGKTARITCGGNNIGSKSVHWYQQKPGQAPVLVIYYDSDRPSGIPERFSGSNSGNTATLTISRVEAGDEADYYCQVWDSSSDHYYVFGTGTKVTVL |  | 18.2 ng/mL
C523 (antibody, V domains shown) VH: QVQLQESGPGLVKPSETLSLTCTVSGASISSHYWSWIRQPPGKGLEWIGYIHYIGSTNYNPSLKSRVTILLDTSKNQFSLRLRSVTAADTAVYYCARGWPYCGVDCYSGFDYWGQGTLVTVSS VL: not shown | 9.08 ng/mL | 
C530 (antibody, V domains shown) VH: QVQLVESGGGVAQPGRSLRLSCAASGFTFSRYGMHWVRQAPGKGLEWVAVIWHDGSDKYCADFVKGRFTISRDNSKNTLYMQMDSLRAEDTAVYYCARGGRPDHETGIAVLGEYYFDSWGQGTLVTVSS VL: SYELTQPPSVSVSPGQTARITCSGDAFPLQYGYWYQQKPGQAPVLVIYKDKERPSGISERFSGSSSGTTVTLTISGVQAEDEADYYCQSADTNGVVFGGGTSLTVL |  | 10.5 ng/mL

— patent US20220195015A1 (published 2022)
